The text below walks through data of publication PMC9816786 (Molecular Metabolism, 2022).

Assay [1] deals with T1, Human PCSK9 (full length), 6xHis-tagged, purified (human, UniProt Q8NBP7, biotinylated where it was immobilised for BLI (site not told)).
T1 construct: human PCSK9, full length cDNA in pIRES2-EGFP; also called full-length PCSK9; proprotein convertase substilisin kexin 9; source: FreeStyle293 FS cells, transfected, purified (NiNTA, size-exclusion chromatography)
Briefly: SEC + other: SAXS; size exclusion chromatography followed by small angle X-ray scattering of PCSK9 alone or in complex with P1.40, in solution. The following applies: both partners purified. (SEC sorts molecules by how far they enter the pores of the column.)

Assay [2] concerns the target T1, Human PCSK9 (full length), …. The experiment in a line: BLI; biotinylated P1.40 immobilised (0.25 μg/μL), PCSK9 or CHRD in solution, pH 7.5, 1:1 binding model; association 3600 s (PCSK9) or 1800 s (CHRD), dissociation 3600 s. The settings on record: both partners purified. Background: Biolayer interferometry detects binding as a change in optical thickness at a sensor tip.

The target of assay [3] is T2, CHRD (aa 449–693) of human PCSK9, 6xHis-tagged (human, UniProt Q8NBP7, biotinylated where it was immobilised for BLI (site not told)).
T2 construct: human PCSK9, C-terminal Cys/His-rich domain, aa 449-693 as printed (modules M1 453-529, M2 530-603, M3 604-692); also called C-terminal Cys/His-rich domain; CHRD alone; source: FreeStyle293 FS cells, transfected, purified (NiNTA, size-exclusion chromatography)
Described as above. The settings on record: both partners purified.

For the next assay, the target named is T3, CHRD D480A mutant (Homo sapiens (Human)., UniProt Q8NBP7, D480A).
T3 construct: human PCSK9 CHRD, aa 449-693 as printed for the parent construct; source: HEK293 cells
The experiment in a line: flow cytometry on cells; P1.40 or its mutants expressed on yeast cells (HA-tagged), 6xHis-tagged CHRD or its mutants in solution; cell binding assays and FACS sorting for deep mutational scanning. The following applies: one partner purified. On the technique in general: Flow cytometry measures light scatter and fluorescence of single cells or particles in a stream.

In the next assay the target is T4, CHRD F456A mutant (Homo sapiens (Human)., UniProt Q8NBP7, F456A).
T4 construct: human PCSK9 CHRD, aa 449-693 as printed for the parent construct; source: HEK293 cells
The description is as above. The settings on record: one partner purified.

The target in the next assay is T5, CHRD R476A mutant (Homo sapiens (Human)., UniProt Q8NBP7, R476A).
T5 construct: human PCSK9 CHRD, aa 449-693 as printed for the parent construct; source: HEK293 cells
The description is as above. The settings on record: one partner purified.

For assay [4], the target named is T6, Human CAP1 (cyclase associated protein 1), 6xHis-tagged, purified (human, UniProt Q01518 1-475, biotinylated where it was immobilised for BLI (site not told)).
T6 construct: human adenylyl cyclase-associated protein 1 (CAP1), cDNA cloned into pCMV; also called adenylyl cyclase-associated protein 1; biotinylated CAP1; source: FreeStyle293 FS cells, transfected, purified (NiNTA, size-exclusion chromatography)
The experiment in a line: BLI; biotinylated PCSK9 or biotinylated CHRD immobilised (0.2 μg/ml), CAP1 in solution, pH 7.5, association and dissociation 600 s. The settings on record: both partners purified.

T6 sequence (Q01518 whole entry): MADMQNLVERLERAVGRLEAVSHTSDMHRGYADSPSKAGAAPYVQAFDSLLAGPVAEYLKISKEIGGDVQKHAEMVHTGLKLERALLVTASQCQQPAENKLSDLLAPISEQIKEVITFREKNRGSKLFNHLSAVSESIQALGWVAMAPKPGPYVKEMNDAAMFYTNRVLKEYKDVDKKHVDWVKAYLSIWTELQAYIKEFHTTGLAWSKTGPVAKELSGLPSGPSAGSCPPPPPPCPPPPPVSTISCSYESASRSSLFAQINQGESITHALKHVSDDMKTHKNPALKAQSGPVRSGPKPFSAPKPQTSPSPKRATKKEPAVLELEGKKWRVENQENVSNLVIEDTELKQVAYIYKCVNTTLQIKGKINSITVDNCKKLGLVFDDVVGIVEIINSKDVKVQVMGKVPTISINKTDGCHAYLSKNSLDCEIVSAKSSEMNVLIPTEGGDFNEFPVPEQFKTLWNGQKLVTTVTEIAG

B1: P1.40, CHRD-specific single domain antibody (nanobody), purified from E. coli (VHH)
VHH: QVKLEESGGGLVQAGGSLRLSCSPSDRTFSAYAMGWFRQVPGREREFVATIRDSDASIYYTDSVKGRFTISRDNAKNTVYLQMNSLIPDDTAVYYCAARQYYSGRVYSTFREEYDYWGQGTQVTVSS
notes: TEV site ENLYFQ/G: a glycine may be left at the N-terminus after cleavage; also called nanobody P1.40; biotinylated P1.40; source: E. coli BL21 (DE3) pLysS, purified (HisTrap, TEV cleavage, size-exclusion chromatography); not shown: DsbC, N-terminal, cleaved; His6, N-terminal, cleaved
The term stoichiometry N denotes the number of molecules, sites or subunits per partner or assembly. The Kd is the concentration at which binding is half-saturated. Read a high Kd as weaker binding. By koff is commonly meant a measure of how fast the partners let go of each other. Read a high koff as a short-lived complex. Usually kon stands for the rate constant with which the complex forms. In the case of B1, in assay [1], the “stoichiometry N” value is 1. Besides, in assay [2], the Kd stood at 5.6 nM, the off-rate (koff) was 9e-06 s⁻¹ and the kon was found to be 1600 M⁻¹ s⁻¹. Also, in assay [3], the Kd stood at 0.0903 nM, the koff worked out at 3.5e-05 s⁻¹ and the kon came to 380000 M⁻¹ s⁻¹.

B2: P1.40 expressed on yeast cells (cell surface, HA-tagged) (VHH)
VHH: QVKLEESGGGLVQAGGSLRLSCSPSDRTFSAYAMGWFRQVPGREREFVATIRDSDASIYYTDSVKGRFTISRDNAKNTVYLQMNSLIPDDTAVYYCAARQYYSGRVYSTFREEYDYWGQGTQVTVSS
Take B2: the “fold decrease of affinity against wild-type CHRD” value in the assay with CHRD D480A mutant was found to be 142 fold; with CHRD F456A mutant, 12 fold; with CHRD R476A mutant, 17 fold.

B3: CHRD (aa 449–693) of human PCSK9, 6xHis-tagged (domain or fragment, UniProt Q8NBP7 449-692, looked up)
chain: HGAGWQLFCRTVWSAHSGPTRMATAVARCAPDEELLSCSSFSRSGKRRGERMEAQGGKLVCRAHNAFGGEGVYAIARCCLLPQANCSVHTAPPAEASMGTRVHCHQQGHVLTGCSSHWEVEDLGTHKPPVLRPRGQPNQCVGHREASIHASCCHAPGLECKVKEHGIPAPQEQVTVACEEGWTLTGCSALPGTSHVLGAYAVDNTCVVRSRDVSTTGSTSEGAVTAVAICCRSRHLAQASQELQ
modifications: biotinylated where it was immobilised for BLI (site not told)
notes: human PCSK9, C-terminal Cys/His-rich domain, aa 449-693 as printed (modules M1 453-529, M2 530-603, M3 604-692); also called C-terminal Cys/His-rich domain; CHRD alone; source: FreeStyle293 FS cells, transfected, purified (NiNTA, size-exclusion chromatography)
Regarding B3, in assay [4], the Kd came out at 1260 nM, the koff came to 0.0007 s⁻¹ and the kon is 560 M⁻¹ s⁻¹.
